B1: Hammerhead Ribozyme (parent)
chain: ACCGGAUGUGCUUUCCGGUCUGAUGAGUCCGUGAGGACGAAACAG

In the series the parent is B1. Kind of series: self-cleavage, relative activity (ratio to wild type); higher = more cleavage; co-transcriptional.
In the case of G25A A41G, the self-cleavage was found to be 0.337.

Regarding G25A A41U, the self-cleavage is 0.275. The figure for G25A A41C is 0.3; for G25C C30U it is 0.314. G25C C30G: the self-cleavage worked out at 0.221.

Take G25C C30A: the self-cleavage came out at 0.262. Turning to G25U A40U, the self-cleavage stood at 0.417.

With G25U A40G, the self-cleavage stood at 0.328. Next, G25U A40C: 0.272.

For the variant G25A, the self-cleavage was found to be 0.377.

For the variant G25C, the self-cleavage was found to be 0.324.

For G25U, the self-cleavage was 0.331.

On to U24C A41G, for which the self-cleavage was determined as 0.358. For U24C A41C, the self-cleavage was determined as 0.305. Next, U24C A41U: 0.408; U24G G39A: 0.327. Next, U24G G39U: 0.303; U24G G39C: 0.266; G25C G35C: 0.355. In the case of G25C G35U, the self-cleavage turned out to be 0.357. Next, G25C G35A: 0.344; G25U G27C: 0.285.

For the variant G25U G27U, the self-cleavage is 0.31. Next, G25U G27A: 0.34; G25U G31A: 0.338; G25U G31C: 0.298. The figure for G25U G31U is 0.419; for U24C G33C it is 1.15. The figure for U24C G33U is 0.854; for U24C G33A it is 1.36. With G25U C30A, the self-cleavage turned out to be 0.293. Next, G25U C30G: 0.291. Next, G25U C30U: 0.259; G25A C43G: 0.338; G25A C43A: 0.294.

Turning to G25A C43U, the self-cleavage amounted to 0.341. The figure for G25A G45C is 0.447; for G25A G45A it is 0.336. For the variant G25A G45U, the self-cleavage is 0.45. Next, U24G C43A: 0.402. Next, U24G C43U: 0.463; U24G C43G: 0.337. Turning to G25U G45C, the self-cleavage was found to be 0.398. The figure for G25U G45A is 0.306; for G25U G45U it is 0.323. Next, G25U U28G: 0.314. Consider G25U U28C, for which the self-cleavage is 0.274. Next, G25U U28A: 0.385. The figure for A26C A37G is 0.671. On to A26C A37U, for which the self-cleavage came out at 0.506. On to A26C A37C, for which the self-cleavage is 0.518. Next, G25C G31U: 0.358; G25C G31A: 0.339. Next, G25C G31C: 0.339; G25A A42U: 0.333; G25A A42C: 0.262. G25A A42G: the self-cleavage turned out to be 0.242. The figure for U24C C38G is 0.601. The figure for U24C C38U is 0.901; for U24C C38A it is 0.676. Next, U24C A37G: 0.9. As to U24C A37U, the self-cleavage turned out to be 0.768. For U24C A37C, the self-cleavage came to 1.02. The figure for U24A G35U is 0.791; for U24G G33A it is 1.18; for U24G G33U it is 1.02. Regarding U24G G33C, the self-cleavage came to 0.81. The figure for G25C A26U is 0.337; for G25C A26G it is 0.265.

Consider G25C A26C, for which the self-cleavage came out at 0.355. The figure for U24C A34C is 0.746.

As for U24C A34U, the self-cleavage amounted to 0.824. The figure for U24C A34G is 0.901; for G25U G36U it is 0.334.

As to G25U G36C, the self-cleavage was determined as 0.312.

Consider G25U G36A, for which the self-cleavage is 0.365. The figure for G25U A42U is 0.349; for G25U A42C it is 0.29; for G25U A42G it is 0.246.

Take G25U A44C: the self-cleavage amounted to 0.42. The figure for G25U A44U is 0.373; for G25U A44G it is 0.669. Regarding G25A U28A, the self-cleavage is 0.342. Next, G25A U28G: 0.313; G25A U28C: 0.355; G25U A26C: 0.288. In the case of G25U A26U, the self-cleavage stood at 0.343. Next, G25U A26G: 0.298; G25C A34G: 0.332. The figure for G25C A34C is 0.29; for G25C A34U it is 0.327; for U24A U32C it is 0.569.

U24A U32G: the self-cleavage was 0.644. Next, U24A U32A: 0.859; U24C G31C: 1.02. Next, U24C G31U: 0.982; U24C G31A: 0.924.

For the variant U24C G36U, the self-cleavage came out at 0.541. Next, U24C G36C: 0.383; U24C G36A: 0.56; U24G A26C: 0.373. U24G A26U: the self-cleavage was found to be 0.718. Turning to U24G A26G, the self-cleavage worked out at 0.304. Take U24C G39U: the self-cleavage was 0.333.

As for U24C G39A, the self-cleavage came to 0.337. For U24C G39C, the self-cleavage is 0.352. Next, U24C C29U: 1.05. In the case of U24C C29A, the self-cleavage was found to be 0.416. The figure for U24C C29G is 0.605; for U24G C29A it is 0.447. The figure for U24G C29G is 0.781; for U24G C29U it is 0.987. Next, G25A A40C: 0.368. Consider G25A A40U, for which the self-cleavage was determined as 0.356.

G25A A40G: the self-cleavage is 0.267.

For G25U G35A, the self-cleavage was determined as 0.282. Next, G25U G35U: 0.326; G25U G35C: 0.259. Turning to A26C, the self-cleavage is 0.7. The figure for U24C A40U is 0.281. As for U24C A40C, the self-cleavage amounted to 0.47.

U24C A40G: the self-cleavage amounted to 0.27.

As for G25A C38A, the self-cleavage stood at 0.379. Next, G25A C38G: 0.33; G25A C38U: 0.317; U24G U28A: 0.912. The figure for U24G U28C is 0.971; for U24G U28G it is 0.885. Take U24G A34G: the self-cleavage amounted to 0.902. The figure for U24G A34C is 0.823; for U24G A34U it is 0.679. For the variant G25C A42C, the self-cleavage is 0.293. The figure for G25C A42U is 0.332; for G25C A42G it is 0.27.

With G25A G35U, the self-cleavage was determined as 0.35. Next, G25A G35C: 0.347; G25A G35A: 0.315; U24G G25U: 0.338. On to U24G G25C, for which the self-cleavage amounted to 0.294. Next, U24G G25A: 0.494. Consider G25U A37U, for which the self-cleavage was found to be 0.302. As to G25U A37C, the self-cleavage stood at 0.294. Take G25U A37G: the self-cleavage amounted to 0.287. As to G25A G33C, the self-cleavage was 0.438. G25A G33A: the self-cleavage is 0.379. Next, G25A G33U: 0.45. The figure for G25A A26U is 0.341; for G25A A26G it is 0.306; for G25A A26C it is 0.339.

Turning to G25C U28C, the self-cleavage came out at 0.309. Turning to G25C U28A, the self-cleavage was 0.338. Next, G25C U28G: 0.311; G25C A40C: 0.359. Turning to G25C A40U, the self-cleavage was determined as 0.332. G25C A40G: the self-cleavage is 0.447. Next, G25C C43A: 0.302; G25C C43G: 0.235. Next, G25C C43U: 0.425; U24C U32G: 0.802. Regarding U24C U32C, the self-cleavage was found to be 1.2.

Consider U24C U32A, for which the self-cleavage was found to be 1.18.

Regarding G25A C30G, the self-cleavage was determined as 0.305. Next, G25A C30U: 0.331.

For G25A C30A, the self-cleavage was 0.369. Next, U24G G31A: 0.992; U24G G31C: 1.19; U24G G31U: 1.13.

The values are drawn from the RNAGym collection of RNA variant scans (doi:10.7554/elife.80360).
